Results reported in patent publication US20050229265.

Legend:
[1] = biological target: T1, P element transposase (delta 2-3) (UniProt Q7M3K2); assay: cell_activity; conditions: germline remobilization in Drosophila, delta 2-3 at 99B
T1 sequence: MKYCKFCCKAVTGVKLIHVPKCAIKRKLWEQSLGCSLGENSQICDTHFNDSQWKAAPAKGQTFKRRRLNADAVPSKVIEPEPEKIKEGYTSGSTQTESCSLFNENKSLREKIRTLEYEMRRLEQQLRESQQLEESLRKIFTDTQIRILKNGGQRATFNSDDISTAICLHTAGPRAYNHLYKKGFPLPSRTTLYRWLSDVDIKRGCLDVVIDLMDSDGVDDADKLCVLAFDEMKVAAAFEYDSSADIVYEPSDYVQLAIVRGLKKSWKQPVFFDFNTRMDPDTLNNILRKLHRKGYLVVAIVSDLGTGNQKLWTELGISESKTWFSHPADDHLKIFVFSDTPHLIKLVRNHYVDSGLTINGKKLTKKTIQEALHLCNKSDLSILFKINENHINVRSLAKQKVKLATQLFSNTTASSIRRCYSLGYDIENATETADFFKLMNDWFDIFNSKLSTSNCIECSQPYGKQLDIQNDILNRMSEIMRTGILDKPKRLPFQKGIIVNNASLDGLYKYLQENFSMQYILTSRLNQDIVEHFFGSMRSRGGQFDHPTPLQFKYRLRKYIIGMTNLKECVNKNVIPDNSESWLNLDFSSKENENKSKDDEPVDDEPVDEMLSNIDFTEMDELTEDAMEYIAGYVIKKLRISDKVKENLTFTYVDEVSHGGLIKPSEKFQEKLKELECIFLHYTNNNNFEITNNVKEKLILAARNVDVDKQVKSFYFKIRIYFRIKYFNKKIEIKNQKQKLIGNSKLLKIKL

piggyBac transposase = assay: cell_activity; conditions: germline remobilization rate in Drosophila with constitutive transposase; TTAA target; 10% with heat shock helper

Row | Substance | activity [1] | activity (piggyBac transposase)
1 | XP (P element) transposon | 50% | –
2 | piggyBac transposon pB[w+] | – | 60%
